Where two headings read alike, the source gives them in different places.
Assays:
[1] = biological target: mesothelin on CHO-MSLN cells (UniProt Q13421); experiment: absorption (depletion) of sCA125 on cells; sCA125 preparation absorbed on CHO-MSLN cells or CHO-K1 parental cells; what is left in the supernatant
[2] = biological target: farletuzumab, humanized IgG1 monoclonal antibody to folate receptor alpha (human (humanized IgG1)); experiment: ELISA; unlabeled farletuzumab incubated alone or with sCA125 or HSA, probed with biotinylated CD16a, CD32a or CD64a; percent inhibition of Fc receptor binding compared to control
[3] = biological target: farletuzumab, humanized IgG1 monoclonal antibody to folate receptor alpha (human (humanized IgG1)); experiment: as above; remark: listed apart in the source
rituximab = experiment: ELISA; data not shown; rituximab and gimsilumab with sCA125, binding of CD16a-biotin
gimsilumab (human) = experiment: as above
Sequence of gimsilumab (human) (heavy, as listed by the source, chain 1 of 2): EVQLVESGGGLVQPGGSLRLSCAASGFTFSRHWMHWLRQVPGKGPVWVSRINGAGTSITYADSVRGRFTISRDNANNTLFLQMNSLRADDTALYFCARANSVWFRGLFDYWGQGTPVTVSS
Sequence of gimsilumab (human) (light, as listed by the source, chain 2 of 2): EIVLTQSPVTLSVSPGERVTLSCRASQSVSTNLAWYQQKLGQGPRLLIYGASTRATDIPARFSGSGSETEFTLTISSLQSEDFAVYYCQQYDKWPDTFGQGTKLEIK

Sequence of farletuzumab, humanized IgG1 monoclonal antibody to folate receptor alpha (human (humanized IgG1)) (heavy, as listed by the source, chain 1 of 2): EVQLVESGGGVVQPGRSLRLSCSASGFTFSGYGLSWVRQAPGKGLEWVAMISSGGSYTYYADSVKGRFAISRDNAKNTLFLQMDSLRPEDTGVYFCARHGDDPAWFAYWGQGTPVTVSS
Sequence of farletuzumab, humanized IgG1 monoclonal antibody to folate receptor alpha (human (humanized IgG1)) (light, as listed by the source, chain 2 of 2): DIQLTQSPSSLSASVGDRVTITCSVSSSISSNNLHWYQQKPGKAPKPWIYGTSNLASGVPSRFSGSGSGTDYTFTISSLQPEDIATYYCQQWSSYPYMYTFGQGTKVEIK
Sequence of UniProt Q13421 (Q13421 other isoform, or with tags, fused parts or gaps): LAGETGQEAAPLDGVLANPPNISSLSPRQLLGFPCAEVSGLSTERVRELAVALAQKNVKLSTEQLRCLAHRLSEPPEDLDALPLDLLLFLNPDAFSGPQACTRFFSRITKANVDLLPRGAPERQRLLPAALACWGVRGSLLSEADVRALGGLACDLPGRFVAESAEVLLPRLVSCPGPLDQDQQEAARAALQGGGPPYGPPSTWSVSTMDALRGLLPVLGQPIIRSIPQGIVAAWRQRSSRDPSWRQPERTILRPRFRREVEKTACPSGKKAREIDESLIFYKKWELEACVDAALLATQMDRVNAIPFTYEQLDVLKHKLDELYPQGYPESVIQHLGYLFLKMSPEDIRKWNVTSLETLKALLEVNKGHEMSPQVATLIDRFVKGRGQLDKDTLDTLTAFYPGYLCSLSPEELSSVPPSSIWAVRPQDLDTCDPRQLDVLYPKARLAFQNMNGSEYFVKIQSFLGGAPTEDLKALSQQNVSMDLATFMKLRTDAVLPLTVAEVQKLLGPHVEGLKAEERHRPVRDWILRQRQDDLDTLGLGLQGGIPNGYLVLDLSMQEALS

soluble CA125 (sCA125), tumor-shed antigen CA125/MUC16 (from UniProt Q8WXI7 1-14507) (natural protein)
percent of sCA125 removed by absorption on CHO-MSLN cells [1]: 98%
percent inhibition of CD16a-biotin binding to farletuzumab [2]: 46%
percent inhibition of CD32a-biotin binding to farletuzumab [2]: 12%
percent inhibition of CD16a-biotin binding to farletuzumab [3]: 38 to 50%
percent inhibition of CD16a-biotin binding to the antibody (rituximab): < 50%
percent inhibition of CD16a-biotin binding to the antibody (gimsilumab (human)): < 50%
